According to publication PMC8750153:

Biological target: PpPex11 H2 WT peptide (Pichia pastoris)
Assay: pull-down; biotinylated peptides on streptavidin affinity gel as bait; soluble lysate fraction of His6-tagged GFP-Pex11s as prey, 1 h at room temperature; 50 mM Tris pH 8.0, 50 mM NaCl, 5 mM EDTA; anti-GFP immunoblot

fold binding against the H3 peptide: 2.5 fold
Substance: His6-GFP-Pex11 (natural protein)
